From patent WO2011040973A2 (dated 2011)
Substitutions are numbered along the chain they refer to.

T1: huFAP coated on a surface plasmon resonance chip (human, UniProt Q12884 26-760, limits assumed)
T1 construct: also called human FAP
T1 sequence (looked up): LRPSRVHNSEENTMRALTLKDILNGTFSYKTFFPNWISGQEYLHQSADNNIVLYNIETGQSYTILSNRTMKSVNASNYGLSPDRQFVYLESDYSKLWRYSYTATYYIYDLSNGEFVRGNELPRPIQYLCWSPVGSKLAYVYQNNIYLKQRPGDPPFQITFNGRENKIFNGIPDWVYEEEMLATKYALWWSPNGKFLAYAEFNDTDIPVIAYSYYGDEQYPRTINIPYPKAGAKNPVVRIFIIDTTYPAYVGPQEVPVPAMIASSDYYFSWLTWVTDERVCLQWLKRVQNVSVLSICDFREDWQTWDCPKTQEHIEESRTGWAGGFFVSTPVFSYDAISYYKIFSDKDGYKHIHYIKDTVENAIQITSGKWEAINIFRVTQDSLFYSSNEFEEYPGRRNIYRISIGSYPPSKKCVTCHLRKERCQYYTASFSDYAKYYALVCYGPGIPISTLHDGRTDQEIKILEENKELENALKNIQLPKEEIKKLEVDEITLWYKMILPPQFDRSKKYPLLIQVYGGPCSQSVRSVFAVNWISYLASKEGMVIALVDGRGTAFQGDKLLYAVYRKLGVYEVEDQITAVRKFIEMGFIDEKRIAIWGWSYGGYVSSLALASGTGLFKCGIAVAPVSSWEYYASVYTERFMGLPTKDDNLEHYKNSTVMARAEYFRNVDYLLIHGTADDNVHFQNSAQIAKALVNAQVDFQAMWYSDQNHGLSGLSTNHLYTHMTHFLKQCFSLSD

T2: murine Fibroblast Activation Protein (FAP), expressed in HEK293 cells (mouse, UniProt P97321 1-761)
T2 construct: whole, on cells; Used on transfected HEK293 cells (flow cytometry) and as lysate of those cells coated on plates (ELISA); also called mouse FAP; muFAP
T2 sequence (looked up): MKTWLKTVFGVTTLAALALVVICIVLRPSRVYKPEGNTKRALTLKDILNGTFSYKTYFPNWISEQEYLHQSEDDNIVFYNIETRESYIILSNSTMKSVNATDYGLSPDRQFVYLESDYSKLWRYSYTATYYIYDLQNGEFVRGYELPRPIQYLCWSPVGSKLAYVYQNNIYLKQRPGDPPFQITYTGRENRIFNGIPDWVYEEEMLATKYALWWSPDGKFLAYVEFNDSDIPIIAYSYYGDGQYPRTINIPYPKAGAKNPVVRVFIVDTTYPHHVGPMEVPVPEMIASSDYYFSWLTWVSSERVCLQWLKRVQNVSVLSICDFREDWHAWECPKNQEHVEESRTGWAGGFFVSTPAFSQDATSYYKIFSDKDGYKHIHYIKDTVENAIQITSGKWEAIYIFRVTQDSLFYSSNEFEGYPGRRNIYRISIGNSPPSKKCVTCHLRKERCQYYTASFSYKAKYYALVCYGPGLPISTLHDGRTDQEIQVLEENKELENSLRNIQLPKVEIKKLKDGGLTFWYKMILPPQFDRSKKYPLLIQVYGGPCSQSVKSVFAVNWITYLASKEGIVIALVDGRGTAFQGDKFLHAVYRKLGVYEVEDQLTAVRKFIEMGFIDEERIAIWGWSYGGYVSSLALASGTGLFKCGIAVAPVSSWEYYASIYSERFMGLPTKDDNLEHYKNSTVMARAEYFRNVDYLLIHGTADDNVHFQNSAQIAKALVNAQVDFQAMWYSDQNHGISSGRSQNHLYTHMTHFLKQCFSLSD

T3: human Fibroblast Activation Protein (FAP), expressed in transfected cells (human, UniProt Q12884 1-760)
T3 construct: whole, on cells; Used on transfected HT1080 / HEK293 cells (flow cytometry), as lysates of those cells coated on plates (ELISA) and as immunoprecipitate from their extracts; also called human FAP; huFAP
T3 sequence (looked up): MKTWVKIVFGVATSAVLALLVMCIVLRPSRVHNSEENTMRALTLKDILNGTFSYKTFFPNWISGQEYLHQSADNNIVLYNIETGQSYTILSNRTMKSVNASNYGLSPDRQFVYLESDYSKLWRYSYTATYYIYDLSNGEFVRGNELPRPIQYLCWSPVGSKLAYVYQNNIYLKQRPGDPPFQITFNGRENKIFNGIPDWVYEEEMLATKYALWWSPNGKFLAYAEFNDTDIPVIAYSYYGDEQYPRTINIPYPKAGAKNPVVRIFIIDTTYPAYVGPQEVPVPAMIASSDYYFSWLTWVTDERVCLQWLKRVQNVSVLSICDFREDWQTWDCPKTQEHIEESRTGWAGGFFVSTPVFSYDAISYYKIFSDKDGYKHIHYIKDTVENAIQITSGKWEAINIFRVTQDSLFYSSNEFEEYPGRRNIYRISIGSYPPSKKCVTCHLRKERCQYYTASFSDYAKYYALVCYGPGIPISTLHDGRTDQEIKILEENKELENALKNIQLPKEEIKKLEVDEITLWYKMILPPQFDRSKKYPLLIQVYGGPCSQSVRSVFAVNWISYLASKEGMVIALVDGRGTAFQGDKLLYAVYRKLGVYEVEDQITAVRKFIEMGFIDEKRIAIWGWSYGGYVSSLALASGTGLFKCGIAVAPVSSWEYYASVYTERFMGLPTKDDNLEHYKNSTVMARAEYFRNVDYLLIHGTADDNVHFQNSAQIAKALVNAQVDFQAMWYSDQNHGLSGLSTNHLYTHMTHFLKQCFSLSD

B1: Fab ESC14 (Fab, V domains shown)
VH: EVQLVQSGAEVKKPGASVKVSCKASGYTFTSYGISWVRQAPGQGLEWMGWISAYNGNTNYAQKLQGRVTMTTDTSTSTAYMELRSLRSDDTAVYYCARDWSRSGYYLPDYWGQGTLVTVSS
VL: DVVMTQSPLSLPVTLGQPASISCRSSQSLLHSNGYNYLDWYLQRPGQSPHLLIFLGSNRASGVPDRFSGSGSGTDFTLKISRVEAEDVGIYYCMQALQTPPTFGQGTKVEIK
notes: Fully human Fab from a non-immunized phage library, made in E. coli TG-1, with myc tag and His tag
B2: ESC14 IgG1 (antibody, V domains shown)
VH: B1 VH
VL: B1 VL
notes: Variable domains cloned into a full human IgG1 format, made in NS0 cells; also called IgG1 antibody ESC14; ESC14 antibody
B3: Fab ESC11 (Fab, V domains shown)
VH: HVQLQESGPGLVKPSETLSLTCTVSGGSISSNNYYWGWIRQTPGKGLEWIGSIYYSGSTNYNPSLKSRVTISVDTSKNQFSLKLSSVTAADTAVYYCARGARWQARPATRIDGVAFDIWGQGTMVTVSS
VL: ETTLTQSPGTLSLSPGERATLSCRASQTVTRNYLAWYQQKPGQAPRLLMYGASNRAAGVPDRFSGSGSGTDFTLTISRLEPEDFAVYYCQQFGSPYTFGQGTKVEIK
notes: as for B1
B4: ESC11 IgG1 (antibody, V domains shown)
VH: B3 VH with H1Q
VL: B3 VL
notes: Variable domains cloned into a full human IgG1 format, made in NS0 cells; also called IgG1 antibody ESC11; ESC11 antibody

Experiments:
[1] = molecular target: T1, huFAP coated on a surface plasmon …; experiment: surface plasmon resonance, low-density huFAP coated chip
[2] = molecular target: T2, murine Fibroblast Activation Protein …; experiment: serial dilutions of Fab on 293 muFAP+ cells
[3] = molecular target: T4, human dipeptidyl peptidase IV (DPPIV, CD26), expressed in HEK293 cells (human, UniProt P27487 1-766); experiment: ELISA on cell-lysate-coated plates (HEK293 huCD26+), Fig. 3
T4 construct: whole, on cells; Used as lysate of transfected HEK293 cells coated on plates (ELISA), on the cells (flow cytometry screening) and as immunoprecipitate; also called huCD26; HEK293 huCD26+

[4] = molecular target: T3, human Fibroblast Activation Protein …; experiment: binding to antigen expressing cell lines, apparent KD of bivalent IgG

T4 sequence (P27487 whole entry): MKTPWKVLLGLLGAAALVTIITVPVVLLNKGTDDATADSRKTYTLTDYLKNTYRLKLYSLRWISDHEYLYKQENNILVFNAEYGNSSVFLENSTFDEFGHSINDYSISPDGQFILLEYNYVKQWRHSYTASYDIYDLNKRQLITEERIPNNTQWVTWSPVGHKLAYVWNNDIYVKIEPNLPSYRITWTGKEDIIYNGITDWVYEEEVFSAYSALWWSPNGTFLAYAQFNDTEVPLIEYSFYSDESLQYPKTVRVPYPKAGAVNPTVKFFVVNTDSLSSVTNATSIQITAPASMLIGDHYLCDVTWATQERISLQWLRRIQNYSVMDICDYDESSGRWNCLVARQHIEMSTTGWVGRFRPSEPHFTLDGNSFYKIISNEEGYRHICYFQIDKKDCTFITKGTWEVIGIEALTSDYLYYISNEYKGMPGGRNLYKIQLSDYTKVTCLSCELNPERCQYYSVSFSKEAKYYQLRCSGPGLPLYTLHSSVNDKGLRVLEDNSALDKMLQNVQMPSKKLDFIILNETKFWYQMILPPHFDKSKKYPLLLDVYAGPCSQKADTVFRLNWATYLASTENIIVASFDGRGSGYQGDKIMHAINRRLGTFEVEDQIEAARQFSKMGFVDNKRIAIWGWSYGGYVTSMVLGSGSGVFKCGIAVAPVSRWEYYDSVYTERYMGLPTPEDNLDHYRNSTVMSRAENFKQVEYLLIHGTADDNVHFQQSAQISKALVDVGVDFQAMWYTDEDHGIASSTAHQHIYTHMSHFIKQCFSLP

Binder | Kd [1] [nM] | Kd [2] [nM] | binding result [3] | Kd [4] [nM]
B1 | 210 | 251 | no binding (tested: 100 nM) | –
B2 | – | – | – | ~1
B3 | 10 | 51 | no binding (tested: 100 nM) | –
B4 | – | – | – | ~1
